Biological target: SARS-CoV-2 Receptor Binding Domain (RBD) (SARS-CoV-2, UniProt P0DTC2)
Experiment: ELISA
Conditions: both partners purified

B1: NIH-CoVnb-112 (VHH)
VHH: DVQLQESGGGLVQPGGSLRLSCAASGLTLDYYAIGWFRQAPGKEREGVSCISSSDGSTYYADSVKGRFTTSRDNAKNTVYLQMNSLKPEDTAVYYCAAVPSTYYSGTYYYTCHPGGMDYWGKGTQVTVSS
notes: also called lead nanobody candidate; anti-SARS-CoV-2 RBD nanobody; source: E. coli BL21 (DE3), periplasm by osmotic shock, purified (HisTrap, Superdex 75)
EC50: 1.11 nM

From PMC7755911 (Scientific Reports, 2020)
